The results in this text go back to PMC9456352.

Usually stoichiometry N stands for the number of molecules, sites or subunits per partner or assembly.

Experiment [1] has as its target ETE/P186G mutant (Staphylococcus aureus). Briefly: not stated; shown in Figure S5 (not shown); the methods tell SEC of ETE/P186G in 20 mM MES pH 7.0, 150 mM NaCl and BN-PAGE of peak fractions.
Experiment [2] deals with Staphylococcus aureus exfoliative toxin E (Staphylococcus aureus). The experiment in a line: SEC; Superdex G75 10/300 GL, 0.7 mL/min; several buffers, NaCl concentrations and pH values (among them 20 mM MES pH 7.0, 150 mM NaCl); BSA (~66 kDa) and bovine beta-trypsin (~24 kDa) as size controls; absorbance at 230 nm. For orientation: In gel filtration, larger molecules generally elute earlier.

Experiment [3] has the same target. The experiment in a line: native gel or EMSA; BN-PAGE 15%, 30 ug protein, running buffer 25 mM Tris pH 8.3, 192 mM glycine; BSA monomer and bovine beta-trypsin as markers; Coomassie stain. In general terms: A gel shift assay detects complexes by their altered migration in electrophoresis.
The target is the same in experiment [4]. The experiment in a line: SAXS; 5 mg/mL ETE in 20 mM MES pH 7.0, 150 mM NaCl, 25 °C; pair distance distribution by indirect Fourier transform.

For the substance ETE/P186G mutant (enzyme), the stoichiometry N in experiment [1] was 2.

For the substance “Staphylococcus aureus exfoliative toxin E (enzyme)”, the stoichiometry N in experiment [2], in experiment [3] and in experiment [4] was 2 in each case.
